One substance from paper PMC6018903 can be followed below.

This assay has as its target OsSEC3A_C (amino acids 521-888)-NLuc (rice (Oryza sativa)). As to the kind of experiment: split reporter (BiFC, NanoBiT); split firefly luciferase complementation, NLuc and CLuc fusions under the 35S promoter co-expressed in N. benthamiana leaves, read 3 d after infiltration.

In turn, CLuc-OsSNAP32 (natural protein) registered a fold LUC activity over the negative vector controls of 15 fold.
